From the domain aggregation screens of Martell et al. (2025)

test: soluble fraction after stress (log2 fold change); higher = more stays soluble; pooled small domains, quantitative proteomics; settings: stress: 50 degC
Summary of the method: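 Pooled custom libraries of small protein domains were each held under stress at 50°C. The read-out, high-throughput quantitative proteomics, tracked how much of each protein stayed soluble. This is reported as a base-two log fold change used to indicate aggregation propensity. Higher values mean more protein remains in solution.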

Sequence	soluble fraction (log2)
HMEVLSYYGSRGQEVVNIQTKLKQWGYYKGNIDGIFGNLTYQAVREFQRKNGLKVDGIVGPETLAALGLPT	-0.187
HMEVPQVETEKVEAKLKEAEVLLVKVTDSSLKANATETLAGLRNNLTLQTMDNNGIMAEAEKLLALLRES	0.0393
HMEVPTGNHIRRWRKSLDITQVKLSSLSGVAQSIIAKIENETVDPRVSTLRKLVEALSRFENP	-1.89
HMEVQVGKQVRAFRETLGMTVQQFAERTGFSAALLAQIENRMVSPSLGTLVKIANTFGTTVSSFIG	0.0076
HMEVSTDADFEAVGIRAELIPILQKLGFTTVAQLKEVKATKLFNDIPGMRKKLKLDAVQNPTLQEIEGWLK	-0.0529
HMEVTLEEKLSYVEEYAKVHSHFSFRDLLKKQASKTQIVVTFLAILELMKTGKIQITQEHIFDDIVITAK	-0.0755
HMEVTYQETLRVLYNAIDKLPPQTKEIILIGLDGKDNNEIAATLNISVNTVKTLKKNAYKTLRELLVD	-0.157
HMEWNPEKQHLLENYITNYSRQLNDTGLFYKNLDWNYIFNLVGVDDQEFLMLKIDEIYDESINVY	-0.521
HMEWNREQLEQIVLQHIRKHGFITRATYTELTGRLKNSALADLKSFAAEGIIKRVGRGNQMHFIVPL	-2.42
HMEWTDHLAEELRSLAVEGEHLEIIANKLGISPGSARAKLVNLNIYNDYQLAHIERLEADTLQAK	-0.318
HMEYFDDEELDRYKGRTSDSFTDDEAEEFREVMMTMHPEEVKAWNRSLILRDVAMPDQIKDDYIMLAG	-0.0408
HMEYKYNPADYPYPLNEDIEKVYSAYREKSIGKLEAAVQNLYYTLKQARRDNILSDVKVNEMQQYFLALRN	-0.324
HMEYNLTLEELNRDLYIRGEIWNVGDVVKTTDGDEGTIIRKGTNYVVFEDLRRVWLHNLEEVK	-1.85
HMEYREFEAMTIRAIATLPPTQGHVIMLSRFEGLDNKEIALRLNLSLQTVKNTLTQGLKELKNKMRKLP	-1.8
HMEYSAAYDRELESIFNLTERGKWEEAEAEVGLLLQQYPEDKTLLRISEWVATQKTILREQAIEDRIRS	0.186
HMEYSYKLIDLLVDRFSEEGVDPEEAREYINLFHRFSQGLDPDKRDITKYSWDELYRTVNDKKDS	0.107
HMEYTVNHYPEKHRFEVVEDGLTAYVEYRLRGDALDIIHTIVPKNLEGRGIAATLVETAYKYAKEQ	-1.2
HMFAAIFADDSGFTTRSKRFGPYVEEIAADWQAVKQLSDEDAKQALVPLVKKIELALSTLQQFVSSV	-0.244
HMFAATGTVNTEGSSLRLRAEASTSSSVLKQLSHGTQVDVLSGLVDGWYQVSYKGTTGYVSGEYLTVTE	-0.451
HMFADLNPDENYGQVYIRTNTIDNLYQTLLDNKTRIHPNGLLELKPWGQKEFSILDPDKNLLTFGES	0.0797
HMFAERLKELRKMRRFSQHALAERLGISQQAVGKWETGKSTPDPATLREIADIFEVSVDLLLGR	-0.247
HMFDDEELDRFAGVPADAYLPADEDEFREVFYTMRPGEVVEWVRSLELRHIEIPNGIKDEIFMMIR	-3.35
HMFDEDKLIISIGSKVRIIREPYFGTIGKVVELPPELVKMDTEAMLRVAIIKLDDGEKVTIPRANLEVILS	-1.22

Sequence	soluble fraction (log2)
HMFDEVKDAARRLAALLDQAGGTLTLNDKSAPEEVAALTGMSKKVFKRALGHLMSRSEVVVADGRITKKD	-0.289
HMFDGRSDAEKTLDLIKTAIDNILKGGAIQEYKIGTRTAKKYDMAELQVLKGEYAAMVAREKQAETMA	-0.132
HMFDGVAAGKPAILDALEDAGGFLPLNSKSSVEEIQASFSFSKRVFKQLIGMLYKERKIVITDDGIRLAD	-0.352
HMFDGYQWLKRDIIRGVYQPEEKLRMSLLTNRYGLGVGPLREALSQLVAEHLVTVVSQKGYRVAPM	-0.112
HMFDKNKPVVVEGENAEVALKKVSKYFNVPTEKLDYTLLGQKSAGLLGIGSKVYQFKVWLKREIP	0.396
HMFDLENIRLTLARRLNVAAHLRPKYVAGFTLLLKQNFPEQNAEDLLNRLEHNQWLKVNQREIEYSPRLLM	-1.58
HMFDPAKQMQRIRKYAGMNRKEFSEWLNIPYRTMTDWELGNRTMPVYLLELIVYKVNHEIANA	0.186
HMFDREKFIKLGQEFARVAFENVNKRATDRALKTAAKHYGLPSADELLARLGSSEIAARDVVAELYPNL	-0.34
HMFDSYDIYDEAGNTVNTVKGKLSWGHLLEIYDRFDNHIGTVQERVLTFLPKFLMYINGQEIGEIR	-0.0596
HMFDVNSMIAANIVAILKKQNRKQIDLAGALQTNKQTISKMLNGSRMINAIELKRIAEFLGVKMEELTKL	-0.635
HMFDVRWEQGYALAAAYAQEYGNLDVPRDYKTADGKKLGRWIQSQEQAYEQKKLSEEQISRLEMIGMQWG	-0.604
HMFEDEPSEREIRISTLLAAFLKQEDGGTAVSRERFLKENSDVAEDLQILLEMADMIQEMAGP	-0.418
HMFEKIDINFADIHQLKGLPLNSEQINSIIEYRNQNGFIENIYDLKNVNGISIDKVHELKSYIFIIDV	-2.42
HMFENPRALLEMMISLGNEQGLINMARDIVSAGEFRRLELAAGGDRRKLARMLIDHLVEVAPRLP	-0.394
HMFEQFEVENLQELQQEWGDKFNHNLEMARRAFMNFATPEAVKVLEETGMGNHPELLKVFARIGEVLAED	-0.536
HMFERINLIGVNGTTKKRSALVRLLDGEIVKIGVGDSLNGGQVVDISPATLTYLKSGKSIMLTLPK	-1.03
HMFGQRLRLARKRAGLSMQALAQRMSPPVTAQAISKYEADRMMPSSAVLVGLGKALGVSLDFLMGGQ	-0.835
HMFHFELNAAKQALEDRKTIDRAKGILMRQRGMSEDDAYKLLRTTAMSQNRKVIDVAQALVTAADLL	-0.0832
HMFINTVELGRAIKRRREELGLSLRDVADVTNVSASTLSRIENGTGKPDADNIARLTGWLDMPIDRVM	-0.0139
HMFIRINQTQNSPRKSVQIVESKRDGHKVRTKILRHVGIAMDDVELQKLKSLAQDIIAKMTVETENASKQ	-0.00422
HMFKINQKVKLIAPLPYLKTSENMPMLRPPDLVAIDEIGEVLSLKSPETVEVRFRRGSFLIDIDKLEKVD	-0.219
HMFKYLLDTNIVIYVIKKRPIEVMGVFNQNANRMAISAITFSELQHGAEKSVRVQENLNAIEEFTTLIDI	0.181
HMFKYRELLDWAKNRFDDLEVSIAPKALALLVESIGTDLRLLDSEIQKLSMYKPLEMISTNDVEDLVA	-0.357

Sequence	soluble fraction (log2)
HMFLTDHEVSKVARKRAHAEYLSSLSWRQRTFGDHGERSKNFEAWYKEHSHLYETEKLYKELYKN	-0.567
HMFLTPLEEARLVIEEIVIPKNIAVDLSPRPSALRKQQHELIAHYQLKSFSVGNERTKRLRILPKVI	-0.114
HMFMLQAKRVPVSELENFKGIVAEDVVSQSRALILPRGSNLSWLSSSAMQNLSTRLALEGVESISIYL	-1.43
HMFMVAGHLSEKNGYFYAVINYNDSLGNRKTKWMSTGLTVKGNKKRAEAILAEKRRTFQPDEPV	-1.69
HMFNDPTMEDALVNLKGITNEVLSYLSSSKIKKLEELAEMSVPELKDIVENISDDEASALIMEARKPWF	-0.113
HMFNEFEDIPDIISAEGIDPAMREEVAANLKKYYKNPDAMLALAPLEREYYEKLVGILSEKIELKKEN	0.563
HMFNFPEEVRVQLAKSEQLRNLLIPMSETVRDALSGEELWFGRTIFNTTSKKIESWTNPGVWVE	-1.45
HMFNIIARQEIDEILYEYKIENSEDYKNRDPEELAEIYENIKTVQENHDLSDDDVEELLKSIFSDY	-1.02
HMFNKTKVPNFIDMNYYEEIEGNSEYDKFNFADPITKNDDTKAPGTVIDQTPEKGTRIDEEKTVIQLTIA	-0.102
HMFNRAVSDNEALQVREHFDRDATVMSLAKKYGVSTVTIQRILLGKTYRNVGGPLFDKATLKKRMGN	-0.66
HMFNVKAYEKAVKSYITKRKPLGEALDEEIMDELSVKFGIVDDALEDLFKQIQDAGISIVDKDGNPSPLAL	-0.619
HMFPELEPDEQLIADLLRKTNNLQINIITVRTGLPINRVTALLFQMEMKGVVRPLAGGTYHLLV	-0.108
HMFPELSPEEQLIVEVLSKTNDLQVNLISVKTNIDISRLTSLLFTLEMKGVIKTFAGGMYHLL	-0.538
HMFPSLSPEEQAVVDVLQRNNDLQINMLSVQSGLTISRLTALLFQLEMKGVIKPLAGGMYHLL	0.0206
HMFPTLSPEEQRIVDQLAKENDLQANVIALRTALTIPQISALLFSLEMKGMVRLYAGGTYHLI	-2.81
HMFQPEQISKLNELETLVLDFIIKSPDKVQKATIRSLATQLHVSTTTIVRMSTKLGFNGWSELKFFLKNQS	-2.15
HMFRDFSETLLRKLQAAGGFLPFTDKTDAEAIAEHFQVSKKTFKRAVGTLYKQRRILIDDEGITLIG	-0.148
HMFRPDYYEILQVDRHASPEVITAAYRQLLSIYNSEQDGNKQMIKLIQEAYGVLGDSQDRWLYDSWLDNN	-0.746
HMFRSNAERAAHLASALPRAEAELAALQARGAATSENIYLRSSYFDALRYTEELRAAKRAQDALQGA	0.0735
HMFSAASSQISSYVRSVVDKAQTYEQAYEILAKNPLGFKLDALEDELFRIIANAEILGADDDE	-0.887
HMFSNATISGLKAGALVRVYNISGVAVSTLTADAEGKVSVDLNNLPKGVYILSTPSKSFKVLN	-0.54
HMFSWRQHLDHFGFSDEIKKRLADAVFLNDDWNEIDRGVLTKEELLARFIENDPGIEKEIYMVMENIN	-0.509
HMFYPIAHTLTKLNIRSGPGEQYQKLATFENNHDLVVLTQQNEWVQVRGKSDEQVIIGWVHSSFLSPT	-1.09
